{"source": "patent US20150132779A1", "target": "M1-linked polyubiquitin chains (UniProt P0CG48)", "assay": "cell-based or functional assay", "data": [{"substance": "trypsin-resistant tandem ubiquitin binding entity (TR-TUBE) (designed binder)", "values": [{"measurement": "Ub-ProT assay: length of chain protected from trypsinization (ubiquitin molecules)", "value": "< 16"}]}]}
